Assay results from patent US9221871 (NEW YORK UNIVERSITY, dated 2015).

Biological target: T1, His-tagged human Bcl-xL (human, UniProt Q07817 1-212)
T1 construct: Bought protein; also called Hiss-tagged human Bcl-xL; not shown: His tag
Assay: fluorescence polarization competition against fl-Bak, Kd by regression analysis
Method: The anisotropy experiments were performed with a DTX 880 Multimode Detector (Beckman) at 4° C., with excitation and emission wavelengths of 485 and 525 nm, respectively.

T1 sequence (Q07817 1-212): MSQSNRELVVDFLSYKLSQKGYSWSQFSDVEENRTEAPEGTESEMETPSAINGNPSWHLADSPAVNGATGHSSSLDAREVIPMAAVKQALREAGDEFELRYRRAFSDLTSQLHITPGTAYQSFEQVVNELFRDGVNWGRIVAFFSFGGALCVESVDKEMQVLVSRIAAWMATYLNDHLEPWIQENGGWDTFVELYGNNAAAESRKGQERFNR

B1: artificial Bak BH3 α-helix 10a (hydrogen bond surrogate, HBS) (peptide)
chain: QVGRQLAIIGDDINR
modifications: not fully specified; N-terminal Gly-72 replaced by a 4-pentenoic acid residue (alkene-bearing glycine mimic); Gly-75 is N-allyl-glycine; the two olefins are joined by ring-closing metathesis (carbon-carbon hydrogen bond surrogate, mixture of cis and trans alkene isomers); C-terminal amide
For B1, the Kd was 325 nM.
